Test results: patent publication US20240165282A1, “CONFORMATIONAL CONSTRAINED SOMATOSTATIN RECEPTOR 3 PEPTIDE LIGANDS AND THEIR CONJUGATES AND USES THEREOF” (STARGET PHARMA LTD., priority 2021, published 2024)
*1 amine or outer side, *2 acyl side, *3 side chain or, on linkers, in order; H or OH if unused. Bridges are numbered along the chain shown (N, C = ends). [ ]: non-standard residue; d: D form. The star is where a group is joined. DOTA = O=C(O)CN1CCN(CC(=O)O)CCN(CC(=O)*)CCN(CC(=O)O)CC1; N(2-mercaptoethyl)Gly = O=C(CN(CCS[*:3])[*:1])[*:2]; 4Amb = NCc1ccc(C(=O)O)cc1; Orn = NCCC[C@H](N)C(=O)O; Aoc = NCCCCCCCC(=O)O; CPT = camptothecin; GABA = NCCCC(=O)O

What was measured:
Experiment in all cases: Radioligand binding, displacement of 125I-Tyr11-SRIF-14
hSSTR-4 = target: T1, hSSTR-4 (Homo sapiens, UniProt P31391); settings: hSSTR-4
T1 construct: host or cells: Chem-1 (Rat ChemiSCREEN) cells, membrane preparation
T1 sequence (P31391 whole entry): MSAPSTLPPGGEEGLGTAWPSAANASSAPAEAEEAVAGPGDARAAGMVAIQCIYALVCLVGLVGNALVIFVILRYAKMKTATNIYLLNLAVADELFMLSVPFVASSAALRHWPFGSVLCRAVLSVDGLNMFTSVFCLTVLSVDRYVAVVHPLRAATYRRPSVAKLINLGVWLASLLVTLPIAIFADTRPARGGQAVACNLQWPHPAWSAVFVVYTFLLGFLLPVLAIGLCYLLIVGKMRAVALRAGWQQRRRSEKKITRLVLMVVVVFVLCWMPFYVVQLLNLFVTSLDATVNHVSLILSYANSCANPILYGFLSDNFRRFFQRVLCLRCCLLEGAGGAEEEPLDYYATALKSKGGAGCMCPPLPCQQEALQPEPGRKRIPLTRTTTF
Excerpt: (§1) The binding to human cloned receptors SSTR-1, or SSTR-2 or SSTR-3 evaluated in stable and selective transfected CHO (Chinese Hamster Ovary) cells and binding to STSR-4 and SSTR-5 in stable and selective transfected Chem-1 (Rat ChemiSCREEN) cells. […] The binding reactions were filtered, the filters were washed, and the bound radioactivity was counted using a gamma counter.
(§2) The following table depicts the conditions of binding assay to each of the somatostatin receptors used for the evaluations of binding affinities of the tested peptides. All assays were performed by quantitation method of radioligand binding under 25° C. The vehicle was 1% DMSO, the incubation buffer was 25 mM HEPES, pH 7.4, 5 mM MgCl2, 1 mM CaCl2, 0.1% BSA. […] The significance criteria were >50% of max inhibition. […] This specific binding data used for calculation of Bmax values which is the concentration of each of the expressed cloned receptor in its transfected cell system.
(§3) The Results of IC50 values were determined by a non-linear, least squares regression analysis using MathIQ™ (ID Business Solutions Ltd., UK). […] The Hill coefficient (nH), defining the slope of the competitive binding curve, was calculated using MathIQ™.

SSTR5 = SSTR5 (Homo sapiens, UniProt P35346); set-up: host or cells: Chem-1 (Rat ChemiSCREEN) cells, membrane preparation; settings: hSSTR-5
Sequence of SSTR5 (P35346 whole entry): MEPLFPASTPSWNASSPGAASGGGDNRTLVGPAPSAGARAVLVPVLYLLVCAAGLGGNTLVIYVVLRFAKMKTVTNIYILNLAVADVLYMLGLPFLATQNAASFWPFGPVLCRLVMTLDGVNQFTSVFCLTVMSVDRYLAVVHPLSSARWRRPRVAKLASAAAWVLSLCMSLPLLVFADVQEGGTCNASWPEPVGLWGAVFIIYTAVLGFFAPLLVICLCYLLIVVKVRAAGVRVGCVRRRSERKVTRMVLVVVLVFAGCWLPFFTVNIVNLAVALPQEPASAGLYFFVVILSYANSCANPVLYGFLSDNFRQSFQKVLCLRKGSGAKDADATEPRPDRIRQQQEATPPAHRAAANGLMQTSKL
Excerpt: as §1, §2, §3

SSTR2 = SSTR2 (Homo sapiens, UniProt P30874); set-up: host or cells: CHO (Chinese Hamster Ovary) cells, membrane preparation; settings: hSSTR-2
Sequence of SSTR2 (P30874 whole entry): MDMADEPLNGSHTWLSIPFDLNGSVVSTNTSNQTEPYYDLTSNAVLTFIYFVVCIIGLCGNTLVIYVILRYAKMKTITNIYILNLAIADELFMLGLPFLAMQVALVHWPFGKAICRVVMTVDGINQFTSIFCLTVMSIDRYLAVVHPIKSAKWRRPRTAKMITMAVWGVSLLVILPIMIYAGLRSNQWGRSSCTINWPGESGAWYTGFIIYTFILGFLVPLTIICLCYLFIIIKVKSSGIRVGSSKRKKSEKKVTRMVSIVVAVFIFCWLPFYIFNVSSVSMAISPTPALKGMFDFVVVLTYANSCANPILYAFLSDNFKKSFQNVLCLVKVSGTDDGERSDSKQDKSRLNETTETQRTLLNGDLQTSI
Excerpt: as §1, §2, §3

SSTR3 = SSTR3 (Homo sapiens, UniProt P32745); set-up: host or cells: CHO (Chinese Hamster Ovary) cells, membrane preparation; settings: for % displacement of [^125I] Tyr^11-SRIF-14: hSSTR-3; for affinity and selectivity to SSTR3 (in words): binding data
Sequence of SSTR3 (P32745 whole entry): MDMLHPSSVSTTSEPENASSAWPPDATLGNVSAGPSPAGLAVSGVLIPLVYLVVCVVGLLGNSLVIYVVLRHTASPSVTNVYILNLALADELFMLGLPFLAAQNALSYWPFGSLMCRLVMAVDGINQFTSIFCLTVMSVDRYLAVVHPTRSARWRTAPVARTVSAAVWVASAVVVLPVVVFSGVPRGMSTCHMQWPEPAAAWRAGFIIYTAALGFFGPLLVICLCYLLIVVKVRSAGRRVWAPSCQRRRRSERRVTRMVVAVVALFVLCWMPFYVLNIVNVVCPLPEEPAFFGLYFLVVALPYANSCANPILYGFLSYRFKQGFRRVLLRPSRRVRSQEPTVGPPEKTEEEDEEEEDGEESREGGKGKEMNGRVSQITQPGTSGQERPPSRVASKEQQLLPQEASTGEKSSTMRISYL
Excerpt: as §1, §2, §3

SSTR1 = SSTR1 (Homo sapiens, UniProt P30872); set-up: host or cells: CHO (Chinese Hamster Ovary) cells, membrane preparation; settings: hSSTR-1
Sequence of SSTR1 (P30872 whole entry): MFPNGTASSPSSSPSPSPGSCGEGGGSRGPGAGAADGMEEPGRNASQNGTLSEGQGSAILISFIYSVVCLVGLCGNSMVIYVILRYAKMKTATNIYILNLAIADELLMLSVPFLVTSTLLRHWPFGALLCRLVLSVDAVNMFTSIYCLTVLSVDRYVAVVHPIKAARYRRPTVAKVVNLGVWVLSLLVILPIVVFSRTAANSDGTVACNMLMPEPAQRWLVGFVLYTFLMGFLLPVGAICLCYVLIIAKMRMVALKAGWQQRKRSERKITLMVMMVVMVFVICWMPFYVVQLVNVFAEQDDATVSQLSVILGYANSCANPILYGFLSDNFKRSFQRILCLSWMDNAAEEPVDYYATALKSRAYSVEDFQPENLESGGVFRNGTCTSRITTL
Excerpt: as §1, §2, §3

Row | Substance | % displacement of [^125I] Tyr^11-SRIF-14 (hSSTR-4; at 1 nM (in brackets)) | % displacement of [^125I] Tyr^11-SRIF-14 (hSSTR-4; at 10 nM) | % displacement of [^125I] Tyr^11-SRIF-14 (SSTR5; at 1 nM (in brackets)) | % displacement of [^125I] Tyr^11-SRIF-14 (SSTR5; at 10 nM) | % displacement of [^125I] Tyr^11-SRIF-14 (SSTR2; at 1 nM (in brackets)) | % displacement of [^125I] Tyr^11-SRIF-14 (SSTR2; at 10 nM) | % displacement of [^125I] Tyr^11-SRIF-14 (SSTR3; at 1 nM (in brackets)) | % displacement of [^125I] Tyr^11-SRIF-14 (SSTR3; at 10 nM) | % displacement of [^125I] Tyr^11-SRIF-14 (SSTR1; at 1 nM (in brackets)) | % displacement of [^125I] Tyr^11-SRIF-14 (SSTR1; at 10 nM) | affinity to SSTR3 (SSTR3) | affinity and selectivity to SSTR3 (in words) (SSTR3)
1 | (DOTA)2-Lys^1-D-Phe^2-Arg^3-Cys^4-Phe^5-D-Trp^6-Lys^7-Thr^8-Phe^9-NTEG^10-NH2 (cyclo 3-9) ({DOTA}-K(DOTA)[dF]RCF[dW]KTF[N(2-mercaptoethyl)Gly]-NH2; disulfide 4-10 (inferred); not fully specified; printed as (DOTA)2-Lys1-D-Phe2-Arg3-Cys4-Phe5-D-Trp6-Lys7-Thr8-Phe9-NTEG10-NH2 (cyclo 3-9)) [SEQ ID NO: 16] | 0(0) % | 0(0) % | 0% | 3% | 6% | 2% | 47% | 88% | 0% | 5% |  | 
2 | CPT-8-aminooctanoic acid-D-Phe^1-Arg^2-Cys^3-Phe^4-D-Trp^5-Lys^6-Thr^7-Phe^8-NTEG^9-NH2 (cyclo 3-9) ({CPT-Aoc}-[dF]RCF[dW]KTF[N(2-mercaptoethyl)Gly]-NH2; disulfide 3-9) [SEQ ID NO: 27] | 0(0) % | 0(0) % | 0(0) % | 0(0) % | 0(0) % | 0(0) % | 12% | 51% | 0% | 3% | ≤ 10 nM | the same selectivity to SSTR3 as SEQ ID NO: 1
3 | DOTA-4-Amb-D-Phe^1-Arg^2-Cys^3-Phe^4-D-Trp^5-Lys^6-Thr^7-Phe^8-NTEG^9-NH2 (cyclo 3-9) ({DOTA-4Amb}-[dF]RCF[dW]KTF[N(2-mercaptoethyl)Gly]-NH2; disulfide 3-9) [SEQ ID NO: 18] | 0% | 8% | 0(0) % | 0(0) % | 0(0) % | 0(0) % | 49% | 85% | 0% | 4% |  | 
4 | DOTA-8-aminooctanoic acid-D-Phe^1-Arg^2-Cys^3-Phe4-D-Trp^5-Lys^6-Thr^7-Phe^8-NTEG^9-NH^2(cyclo 3-9) ({DOTA-Aoc}-[dF]RCF[dW]KTF[N(2-mercaptoethyl)Gly]-NH2; disulfide 3-9) [SEQ ID NO: 15] | 0(0) % | 0(0) % | 0(0) % | 0(0) % | 1% | 0% | 49% | 87% | 6% | 18% |  | 
5 | DOTA-Ala^1-D-Phe^2-Arg^3-Cys^4-Phe^5-D-Trp^6-Lys^7-Thr^8-Phe^9-NTEG^10-NH2 (cyclo 4-10) ({DOTA}-A[dF]RCF[dW]KTF[N(2-mercaptoethyl)Gly]-NH2; disulfide 4-10; SMILES C[C@H](NC(=O)CN1CCN(CC(=O)O)CCN(CC(=O)O)CCN(CC(=O)O)CC1)C(=O)N[C@H](Cc1ccccc1)C(=O)N[C@@H](CCCNC(=N)N)C(=O)N[C@H]1CSSCCN(CC(N)=O)C(=O)[C@H](Cc2ccccc2)NC(=O)[C@H]([C@@H](C)O)NC(=O)[C@H](CCCCN)NC(=O)[C@@H](Cc2c[nH]c3ccccc23)NC(=O)[C@H](Cc2ccccc2)NC1=O) [SEQ ID NO: 12] | 0(0) % | 0(0) % | 0% | 13% | 0(0) % | 0(0) % | 64% | 93% | 0% | 10% |  | 
6 | DOTA-Arg^1-Gly^2-Asp^3-D-Phe^4-Arg^5-Cys^6-Phe^7-D-Trp^8-Lys^9-Thr^10-Phe^11-NTEG^12- NH2 (cyclo 6-12) ({DOTA}-RGD[dF]RCF[dW]KTF[N(2-mercaptoethyl)Gly]-NH2; disulfide 6-12; SMILES C[C@@H](O)[C@@H]1NC(=O)[C@H](CCCCN)NC(=O)[C@@H](Cc2c[nH]c3ccccc23)NC(=O)[C@H](Cc2ccccc2)NC(=O)[C@@H](NC(=O)[C@H](CCCNC(=N)N)NC(=O)[C@@H](Cc2ccccc2)NC(=O)[C@H](CC(=O)O)NC(=O)CNC(=O)[C@H](CCCNC(=N)N)NC(=O)CN2CCN(CC(=O)O)CCN(CC(=O)O)CCN(CC(=O)O)CC2)CSSCCN(CC(N)=O)C(=O)[C@H](Cc2ccccc2)NC1=O) [SEQ ID NO: 14] |  |  |  |  |  |  | 46% | 89% |  |  |  | did not interfere with the affinity and selectivity of SEQ ID NO: 3 to SSTR3
7 | DOTA-D-Phe^1-Arg^2-Cys^3-Tyr^4-D-Trp^5-Lys^6-Thr^7-Phe^8-NTEG^9-NH2 (cyclo 3-9) ({DOTA}-[dF]RCY[dW]KTF[N(2-mercaptoethyl)Gly]-NH2; disulfide 3-9; SMILES C[C@@H](O)[C@@H]1NC(=O)[C@H](CCCCN)NC(=O)[C@@H](Cc2c[nH]c3ccccc23)NC(=O)[C@H](Cc2ccc(O)cc2)NC(=O)[C@@H](NC(=O)[C@H](CCCNC(=N)N)NC(=O)[C@@H](Cc2ccccc2)NC(=O)CN2CCN(CC(=O)O)CCN(CC(=O)O)CCN(CC(=O)O)CC2)CSSCCN(CC(N)=O)C(=O)[C@H](Cc2ccccc2)NC1=O) [SEQ ID NO: 25] | 5% | 8% | 6% | 16% | 0(0) % | 0(0) % | 65% | 94% | 1% | 15% |  | 
8 | DOTA-D-Phe^1-Glu^2-Glu^3-Orn^4-Cys^5-Phe^6-D-Trp^7-Lys^8-Thr^9-Phe^10-NTEG^11-NH2 (cyclo 5-11) ({DOTA}-[dF]EE[Orn]CF[dW]KTF[N(2-mercaptoethyl)Gly]-NH2; disulfide 5-11; SMILES C[C@@H](O)[C@@H]1NC(=O)[C@H](CCCCN)NC(=O)[C@@H](Cc2c[nH]c3ccccc23)NC(=O)[C@H](Cc2ccccc2)NC(=O)[C@@H](NC(=O)[C@H](CCCN)NC(=O)[C@H](CCC(=O)O)NC(=O)[C@H](CCC(=O)O)NC(=O)[C@@H](Cc2ccccc2)NC(=O)CN2CCN(CC(=O)O)CCN(CC(=O)O)CCN(CC(=O)O)CC2)CSSCCN(CC(N)=O)C(=O)[C@H](Cc2ccccc2)NC1=O) [SEQ ID NO: 22] | 0% | 3% | 0(0) % | 0(0) % | 0(0) % | 0(0) % | 0% | 49% | 8% | 7% |  | did not interfere with the affinity and selectivity to SSTR3
9 | DOTA-D-Phe^1-Lys^2-Cys^3-Tyr^4-D-Trp^5-Lys^6-Thr^7-Phe^8-NTEG^9 -NH2 (cyclo 3-9) ({DOTA}-[dF]KCY[dW]KTF[N(2-mercaptoethyl)Gly]-NH2; disulfide 3-9; SMILES C[C@@H](O)[C@@H]1NC(=O)[C@H](CCCCN)NC(=O)[C@@H](Cc2c[nH]c3ccccc23)NC(=O)[C@H](Cc2ccc(O)cc2)NC(=O)[C@@H](NC(=O)[C@H](CCCCN)NC(=O)[C@@H](Cc2ccccc2)NC(=O)CN2CCN(CC(=O)O)CCN(CC(=O)O)CCN(CC(=O)O)CC2)CSSCCN(CC(N)=O)C(=O)[C@H](Cc2ccccc2)NC1=O) [SEQ ID NO: 24] |  |  |  |  |  |  | 66% | 88% |  |  |  | 
10 | DOTA-GABA-D-Phe^1-Arg^2-Cys^3-Phe^4-D-Trp^5-Lys^6-Thr^7-Phe^8-NTEG^9-NH2 (cyclo 3-9) ({DOTA-GABA}-[dF]RCF[dW]KTF[N(2-mercaptoethyl)Gly]-NH2; disulfide 3-9) [SEQ ID NO: 7] |  |  |  |  |  |  |  |  |  |  |  | increased the affinity and selectivity
